# Measurements taken from patent US20220396632A1 (VERSEAU THERAPEUTICS, published 2022).
# Non-standard residues stand in square brackets, D forms with d. No end group written: not given here. *: point of attachment. Biotin = O=C1N[C@H]2[C@H](CS[C@H]2CCCCC(=O)*)N1; sY = N[C@@H](Cc1ccc(OS(=O)(=O)O)cc1)C(=O)O
# T1: SulfoTyr C4 peptide (not fully specified; Y4, Y7 and Y9 sulfated (SO3); C-terminal biotin)
# T1 construct: also called C4 alpha chain peptide; human sulfotyrosinylated C4 peptide
# T1 peptide: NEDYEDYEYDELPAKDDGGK
# T2: Sulfotyr fibrinogen γ peptide (not fully specified; Y8 and Y12 sulfated (SO3); C-terminal biotin)
# T2 construct: also called Fibrinogen gamma peptide; human sulfotyrosinylated fibrinogen peptide
# T2 peptide: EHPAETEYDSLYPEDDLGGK
# T3: Recombinant human PSGL-1(ECD)-hFc1 (R&D Systems, Cat. 3345-PS) (human, UniProt Q14242 42-305)
# T3 construct: Bought; Gln42-Val295 counted on AAC50061; also called PSGL-1-Fc; PSGL-1-hFc1 chimera; not shown: human IgG1 Fc, Pro100-Lys330
# T3 sequence: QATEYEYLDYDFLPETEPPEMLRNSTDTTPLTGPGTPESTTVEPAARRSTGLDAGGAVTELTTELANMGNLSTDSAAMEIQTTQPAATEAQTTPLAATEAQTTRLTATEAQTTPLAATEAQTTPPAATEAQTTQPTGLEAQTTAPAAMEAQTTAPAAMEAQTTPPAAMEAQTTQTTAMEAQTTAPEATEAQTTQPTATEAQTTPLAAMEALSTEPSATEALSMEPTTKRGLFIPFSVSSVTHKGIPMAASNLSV
# T4: Human fibrinogen protein (ThermoFisher, RP-43142) (human, UniProt P02671 20-629; P02675 31-491; P02679 27-453, limits assumed, natural sulfotyrosines)
# T4 construct: mature; Native dimer with 3 pairs of non-identical chains; also called gamma-fibrinogen; γ fibrinogen protein
# T4 sequence (looked up) 1: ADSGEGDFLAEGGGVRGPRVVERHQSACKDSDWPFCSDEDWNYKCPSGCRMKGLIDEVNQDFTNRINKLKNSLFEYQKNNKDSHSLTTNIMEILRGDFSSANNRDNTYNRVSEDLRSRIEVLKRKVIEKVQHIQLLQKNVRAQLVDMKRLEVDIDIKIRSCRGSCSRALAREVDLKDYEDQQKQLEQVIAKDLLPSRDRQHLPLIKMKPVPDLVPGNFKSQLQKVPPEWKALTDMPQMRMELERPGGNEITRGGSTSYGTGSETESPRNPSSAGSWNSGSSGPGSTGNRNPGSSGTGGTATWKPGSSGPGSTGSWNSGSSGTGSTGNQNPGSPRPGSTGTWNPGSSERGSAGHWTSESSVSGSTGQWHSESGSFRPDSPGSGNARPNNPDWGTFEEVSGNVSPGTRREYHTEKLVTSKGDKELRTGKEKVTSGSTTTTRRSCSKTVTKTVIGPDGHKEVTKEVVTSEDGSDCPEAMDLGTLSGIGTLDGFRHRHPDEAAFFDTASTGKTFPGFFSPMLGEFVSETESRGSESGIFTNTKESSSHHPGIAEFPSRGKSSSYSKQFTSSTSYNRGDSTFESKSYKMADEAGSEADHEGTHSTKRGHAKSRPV
# T4 sequence (looked up) 2: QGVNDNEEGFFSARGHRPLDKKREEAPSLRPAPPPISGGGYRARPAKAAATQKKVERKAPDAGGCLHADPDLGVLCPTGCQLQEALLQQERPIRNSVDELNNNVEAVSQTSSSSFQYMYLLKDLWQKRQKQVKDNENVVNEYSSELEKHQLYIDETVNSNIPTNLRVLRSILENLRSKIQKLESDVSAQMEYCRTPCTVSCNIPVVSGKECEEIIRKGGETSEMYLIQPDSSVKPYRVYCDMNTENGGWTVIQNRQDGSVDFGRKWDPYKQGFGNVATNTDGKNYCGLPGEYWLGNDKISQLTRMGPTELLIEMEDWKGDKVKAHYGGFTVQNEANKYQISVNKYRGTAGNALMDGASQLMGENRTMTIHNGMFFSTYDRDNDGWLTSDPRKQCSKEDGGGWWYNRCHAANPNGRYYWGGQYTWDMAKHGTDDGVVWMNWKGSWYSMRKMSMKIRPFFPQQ
# T4 sequence (looked up) 3: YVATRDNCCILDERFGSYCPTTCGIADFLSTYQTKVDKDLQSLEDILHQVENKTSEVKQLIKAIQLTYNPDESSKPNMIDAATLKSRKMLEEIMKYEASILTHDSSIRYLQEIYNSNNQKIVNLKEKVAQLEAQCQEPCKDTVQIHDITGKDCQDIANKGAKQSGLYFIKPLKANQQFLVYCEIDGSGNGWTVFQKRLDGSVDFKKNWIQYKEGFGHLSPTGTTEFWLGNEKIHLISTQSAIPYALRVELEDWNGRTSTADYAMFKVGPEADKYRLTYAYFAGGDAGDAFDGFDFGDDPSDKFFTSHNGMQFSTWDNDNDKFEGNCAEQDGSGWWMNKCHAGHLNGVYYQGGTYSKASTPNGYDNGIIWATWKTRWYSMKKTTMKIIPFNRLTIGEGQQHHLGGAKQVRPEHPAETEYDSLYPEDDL
# T5: SulfoCCK biotin peptide (human)
# T5 construct: also called sulfotyrosine CCK peptide
# T5 peptide: SHRISDRD[sY]MGWMDFGGK(Biotin)
# T6: Sulfotyrosine CCR2b biotin peptide (human)
# T6 construct: also called CCR2b peptide
# T6 peptide: TTFFD[sY]D[sY]GAPSHGGK(Biotin)
# T7: Sulfotyrosine D6 biotin peptide (human)
# T7 construct: also called D6 peptide
# T7 peptide: ENSSFY[sY][sY]D[sY]LDEVAFGGK(Biotin)
# T8: Scrambled Y42,52,63(SO3) PSGL-1(42-62) biotin peptide (sulfotyrosine at peptide positions 1, 11 and 22; C-terminal Lys-biotin)
# T8 peptide: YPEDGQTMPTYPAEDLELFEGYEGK
# T9: Biotin PSGL-1(42-62) peptide, unmodified (human, C-terminal Lys-biotin)
# T9 construct: Residues 42-62 followed by GGGK-biotin; also called WT; wild-type
# T9 peptide: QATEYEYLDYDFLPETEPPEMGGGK
# T10: Biotin Y46,48,51(SO3) PSGL-1(42-62) peptide (human, sulfotyrosine at Y46, Y48 and Y51; C-terminal Lys-biotin)
# T10 construct: also called fully sulfated N-terminal PSGL-1 peptide
# T10 peptide: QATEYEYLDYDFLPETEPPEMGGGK
# B1: 01A11 (antibody, IgG4, V domains shown)
# VH: EVKLLESGGGLVQPGGSLRLSCATSGFSFSDYWMSWVRQAPGKGLEWVASIKKDGSEKYYVDSVKGRFTISRDNAKNSLYVQMNSLRAEDTAIYYCVVFGAWGPGTLVTVSS
# VL: DIVMTQTPLSLPVTLGQPASISCRSGRSLVYSDGNTYLNWFQQRPGQSPRRLIYKVSNRDSGVPDRFSGGGSGTDFTLKISRVEAEDVAIYYCMQGTHWPPTFGQGTKLEIK
# B2: 09D11 (antibody, IgG4, V domains shown)
# VH: QVQLVESGGGFIQPGGSLRLSCAASGLTFSNYAMTWVRQAPGKGLEWVSTISGGGGNTYYTDSVKGRFTISRDNSKNTLYLQMNSLKAEDTAVYRCAKGLAAALFDYWGQGTLVTVSS
# VL: DIVLTQSPDSLPVTPGEPASISCRSSRSLLHSNGHNFLAWYLQKPGQSPHLLIYLGSNRASGVPDRFSGSGSGTDFTLKISRVEAEDVGIYYCMQALQTPITFGQGTRLDIK
# B3: 01E01 (antibody, V domains shown)
# VH: EVQLVQSGGGVVQPGRSLRLSCAASGFTFSSYGMHWVRQAPGKGLEWVAVISYDGSNKYYADSVKGRFTISRDNSKNTLYLQMHSLRAEDTAVYYCANLVGTTNSWGQGTLVTVSS
# VL: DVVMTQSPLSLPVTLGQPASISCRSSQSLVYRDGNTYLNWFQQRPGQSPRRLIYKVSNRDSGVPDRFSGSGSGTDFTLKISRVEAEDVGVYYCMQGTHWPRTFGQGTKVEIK
# B4: 03E05 (antibody, IgG4, V domains shown)
# VH: EVKLLESGGDLAQTGGSLRLSCVASGFTFSSYPMSWVRQAPGKGLEWVSAIRRSGATQYADSVKGRFTISRDNSKNTVYLQMNSLRVEDTAVYYCAKGTYDLGQGTLVTVSS
# VL: DIVMTQTPLSLPVTLGQPASISCRSSQSLVYSDGNTYLNWFHQRPGQSPRRLIYKVSNRDSGVPDRFSGSGSDTEFTLKISRVEAEDVGVYYCMQATHWPLTFGGGTKVEIK
# B5: 09B09 (antibody, IgG4, V domains shown)
# VH: EVKLLESGGGLVQPGGSLRLSCAASGITFSTYAMMWVRQAPGKGLEWVSGISGSGASRYYADSVKGRFTISRDNSKNMLYLQMNSLRAEDTAVYYCAKKVLGRRKQYFDDWGQGTLVTVSS
# VL: DIVMTQSPLSLPVTPGEPASISCRSSQSLLHSNGYNYLDWYLQRPGQSPQLLIYLGSHRASGVPDRFSGSGSGTEHTLKITTVAAEDVGVYYCMQALQSPPTFGQGTRLDIK
# Biological target: T1, SulfoTyr C4 peptide
# Test: ELISA, 50 nM mAb
# Description: (§1) Recombinant PSGL-1-hFc1 chimera protein consisting of PSGL-1's extracellular domain (ECD) served as a positive control. […] Primary antibody was added (25 ul per well) in duplicate at 50 nM in assay buffer (blocking buffer containing 0.05% Tween®20) into test and control (just blocked) wells and the plate incubated for 45 min at 37° C.
row,Binder,binding normalized to PSGL-1
1,B1,0.07
2,B2,0.05
3,B3,0.83
4,B4,0.61
5,B5,0.35

# Biological target: T2, Sulfotyr fibrinogen γ peptide
# Test: ELISA, 50 nM mAb
# Description: as §1
row,Binder,binding normalized to PSGL-1
1,B1,0.09
2,B2,0.09
3,B3,0.85
4,B4,0.59
5,B5,0.3

# Biological target: T3, Recombinant human PSGL-1(ECD)-hFc1 (R&D …)
# Test: ELISA, 50 nM mAb
# Description: as §1
row,Binder,A450nm [A450nm]
1,B2,2.65
2,B3,2.32
3,B4,2.28
4,B5,1.96

# Biological target: T11, Human complement C4 protein (Millipore Sigma, Cat. 204886) (human, UniProt P0C0L4 20-675; P0C0L4 680-1446; P0C0L4 1454-1744, limits assumed, natural sulfotyrosines)
# T11 construct: mature
# Test: ELISA, 50 nM mAb
# Description: as §1
# T11 sequence (P0C0L4 20-675 limits assumed, form in doubt, chain 1 of 3): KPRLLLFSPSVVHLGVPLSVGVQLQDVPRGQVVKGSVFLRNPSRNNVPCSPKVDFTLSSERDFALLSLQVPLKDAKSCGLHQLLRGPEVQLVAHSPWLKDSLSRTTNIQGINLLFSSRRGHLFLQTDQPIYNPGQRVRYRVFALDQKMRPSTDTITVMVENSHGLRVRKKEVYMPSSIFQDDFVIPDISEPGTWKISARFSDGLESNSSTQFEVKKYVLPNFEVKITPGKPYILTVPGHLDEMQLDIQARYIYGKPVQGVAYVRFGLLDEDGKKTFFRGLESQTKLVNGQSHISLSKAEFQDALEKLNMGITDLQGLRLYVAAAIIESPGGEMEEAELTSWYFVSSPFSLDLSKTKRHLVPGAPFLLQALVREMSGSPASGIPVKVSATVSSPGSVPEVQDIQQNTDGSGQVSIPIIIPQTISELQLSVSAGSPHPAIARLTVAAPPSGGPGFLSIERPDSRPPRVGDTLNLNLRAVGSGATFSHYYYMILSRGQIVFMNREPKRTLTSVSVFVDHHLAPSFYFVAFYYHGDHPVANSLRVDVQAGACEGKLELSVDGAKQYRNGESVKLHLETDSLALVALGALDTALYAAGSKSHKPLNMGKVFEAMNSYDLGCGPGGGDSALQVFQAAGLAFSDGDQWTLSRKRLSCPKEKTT
# T11 sequence (P0C0L4 680-1446 limits assumed, form in doubt, chain 2 of 3): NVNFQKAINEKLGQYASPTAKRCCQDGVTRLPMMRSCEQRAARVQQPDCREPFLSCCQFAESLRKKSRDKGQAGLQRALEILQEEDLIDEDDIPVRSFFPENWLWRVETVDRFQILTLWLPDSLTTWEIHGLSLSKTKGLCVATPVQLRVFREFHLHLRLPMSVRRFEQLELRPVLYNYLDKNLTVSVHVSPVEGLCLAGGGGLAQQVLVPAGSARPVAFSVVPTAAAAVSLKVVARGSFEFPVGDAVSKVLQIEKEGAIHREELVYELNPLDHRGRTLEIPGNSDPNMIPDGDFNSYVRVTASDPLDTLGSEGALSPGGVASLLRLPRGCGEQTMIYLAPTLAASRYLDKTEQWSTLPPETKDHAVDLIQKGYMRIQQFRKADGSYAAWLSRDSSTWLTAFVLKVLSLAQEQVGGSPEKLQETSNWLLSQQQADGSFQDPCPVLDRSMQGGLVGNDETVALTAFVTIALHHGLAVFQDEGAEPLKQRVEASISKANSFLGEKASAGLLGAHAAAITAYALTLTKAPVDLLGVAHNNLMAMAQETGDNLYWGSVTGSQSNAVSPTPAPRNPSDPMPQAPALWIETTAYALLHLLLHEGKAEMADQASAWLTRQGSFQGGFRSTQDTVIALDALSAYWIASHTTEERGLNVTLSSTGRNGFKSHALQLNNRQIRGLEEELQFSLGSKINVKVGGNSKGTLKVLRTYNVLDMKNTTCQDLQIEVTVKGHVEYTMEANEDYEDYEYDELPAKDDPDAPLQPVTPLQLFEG
# T11 sequence (P0C0L4 1454-1744 limits assumed, form in doubt, chain 3 of 3): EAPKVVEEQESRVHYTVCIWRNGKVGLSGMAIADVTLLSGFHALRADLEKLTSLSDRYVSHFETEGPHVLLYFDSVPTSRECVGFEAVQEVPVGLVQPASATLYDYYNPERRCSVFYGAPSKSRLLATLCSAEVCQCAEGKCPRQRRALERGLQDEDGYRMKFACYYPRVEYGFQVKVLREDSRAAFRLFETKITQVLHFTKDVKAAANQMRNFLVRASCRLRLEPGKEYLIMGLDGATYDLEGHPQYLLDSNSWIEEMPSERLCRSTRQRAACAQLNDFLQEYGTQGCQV
row,Binder,binding normalized to PSGL-1
1,B1,0.79
2,B2,0.32
3,B3,0.94
4,B4,0.47
5,B5,0.22

# Biological target: T4, Human fibrinogen protein (ThermoFisher, …)
# Test: ELISA, 50 nM mAb
# Description: as §1
Binder,binding normalized to PSGL-1,binding result
B1,0.17,–
B2,0.07,–
B3,0.2,–
B4,0.05,–
B5,-0.15,no binding (tested: 50 nM)

# Biological target: T5, SulfoCCK biotin peptide
# Test: ELISA, 50 nM mAb
# Description: as §1
row,Binder,binding normalized to PSGL-1
1,B1,0.63
2,B2,0.06
3,B3,0.58
4,B4,0.23
5,B5,0.25

# Biological target: T6, Sulfotyrosine CCR2b biotin peptide
# Test: ELISA, 50 nM mAb
# Description: as §1
row,Binder,binding normalized to PSGL-1
1,B1,0.63
2,B2,0.04
3,B4,0.27
4,B5,0.26

# Biological target: T7, Sulfotyrosine D6 biotin peptide
# Test: ELISA, 50 nM mAb
# Description: as §1
row,Binder,binding normalized to PSGL-1
1,B1,0.11
2,B2,0.26
3,B3,0.75
4,B4,0.52
5,B5,0.56

# Biological target: T8, Scrambled Y42,52,63(SO3) PSGL-1(42-62) …
# Test: ELISA, immobilized biotin peptide
# Description: (§2) A typical ELISA was performed by coating high binding half-well plates (Corning Cat. #3690) with 3 ug/mL/25 ul per well of biotinylated N-terminal PSGL-1 peptides, which incorporated residues 42 to 62 of the protein, in PBS, pH 7.4, overnight at 4° C. The peptide was unmodified or contained sulfated tyrosine at all 3 tyrosine positions (46, 48, and 51) or at one position (tyr51) (Table 7).
# (§3) PSGL-1 protein or peptide served as a positive control. […] […] […] For each antibody, duplicate values were averaged and average assay background was subtracted.
Binder,"A450nm, 20 nM mAb [A450nm]",binding result
B1,0.03,no binding (tested: 20 nM)
B3,–,no binding (tested: 20 nM)

# Biological target: T9, Biotin PSGL-1(42-62) peptide, unmodified
# Test: ELISA, immobilized biotin peptide
# Description: as §2, §3
Binder,"A450nm, 20 nM mAb [A450nm]",EC50 [pM]
B1,1.12,–
B2,–,~50
B3,0.26,–
B4,–,6200
B5,–,~50

# Biological target: T10, Biotin Y46,48,51(SO3) PSGL-1(42-62) …
# Test: ELISA, immobilized biotin peptide
# Description: as §2, §3
Binder,"A450nm, 20 nM mAb [A450nm]",EC50 [pM]
B1,2.67,–
B2,2.79,50
B3,2.72,–
B4,2.61,160
B5,2.8,70

# Biological target: T12, Cynomolgus PSGL-1(ECD)-hFc1 (cynomolgus macaque)
# T12 construct: also called Cyno PSGL1-Fc; Cyno PSGL-1(ECD)-Fc
# Test: ELISA, 20 nM mAb on plate cyno PSGL-1(ECD)-Fc
# Description: Antibody binding to plate-immobilized cyno PSGL-1(ECD) was determined either at one concentration (20 nM) or by generating full antibody binding curves (0.003-200 nM). A typical ELISA was performed by overnight coating at 4° C. with 3 ug/mL/25 ul per well of recombinant cyno PSGL-1(ECD) protein in PBS, pH 7.4, in high binding half-well plates (Corning Cat. #3690). […] Anti-PSGL-1 IgG in assay buffer (blocking buffer containing 0.05% tween 20) was added into test and control wells (20 nM/25 ul/well) and the plate incubated for 45 min at 37° C. […] The plate was incubated for 45 min at 37° C., and mAb bound to plate-immobilized target determined at A450 nm using HRP substrate (3,3′,5,5′-tetramethylbenzidine (TMB)). For each antibody, duplicate values were averaged and assay background subtracted.
row,Binder,A450nm [A450 nm]
1,B1,0.78
2,B2,2.11
3,B3,0.83
4,B4,0.39
5,B5,1.77
